This test addresses M144 mutant NS1A protein (L-to-A substitution at position 144) (influenza A/Udorn/72 virus) (UniProt P03495).

Several values for one entry are separate records, joined by “and”; a condition that tells them apart may be missing. Equal entries are not always repeated.

Consider “GST-F2F3 (GST fusion of CPSF30 amino acids 61-121, second and third zinc fingers)”, for which the percent of wild-type binding (% of wild-type binding) was 5 and 10.

The values are drawn from US20100107264A1.
